These results are taken from patent US6485904.

Positions count from the first letter of the chain named.

Series [1] deals with bovine plasminogen (bovine) (UniProt P06868). The experiment in a line: cell-based or functional assay.
A further series has as its target bovine plasminogen (UniProt P06868).
Series [2] has as its target T1, bovine plasminogen, P06868.
T1 chain: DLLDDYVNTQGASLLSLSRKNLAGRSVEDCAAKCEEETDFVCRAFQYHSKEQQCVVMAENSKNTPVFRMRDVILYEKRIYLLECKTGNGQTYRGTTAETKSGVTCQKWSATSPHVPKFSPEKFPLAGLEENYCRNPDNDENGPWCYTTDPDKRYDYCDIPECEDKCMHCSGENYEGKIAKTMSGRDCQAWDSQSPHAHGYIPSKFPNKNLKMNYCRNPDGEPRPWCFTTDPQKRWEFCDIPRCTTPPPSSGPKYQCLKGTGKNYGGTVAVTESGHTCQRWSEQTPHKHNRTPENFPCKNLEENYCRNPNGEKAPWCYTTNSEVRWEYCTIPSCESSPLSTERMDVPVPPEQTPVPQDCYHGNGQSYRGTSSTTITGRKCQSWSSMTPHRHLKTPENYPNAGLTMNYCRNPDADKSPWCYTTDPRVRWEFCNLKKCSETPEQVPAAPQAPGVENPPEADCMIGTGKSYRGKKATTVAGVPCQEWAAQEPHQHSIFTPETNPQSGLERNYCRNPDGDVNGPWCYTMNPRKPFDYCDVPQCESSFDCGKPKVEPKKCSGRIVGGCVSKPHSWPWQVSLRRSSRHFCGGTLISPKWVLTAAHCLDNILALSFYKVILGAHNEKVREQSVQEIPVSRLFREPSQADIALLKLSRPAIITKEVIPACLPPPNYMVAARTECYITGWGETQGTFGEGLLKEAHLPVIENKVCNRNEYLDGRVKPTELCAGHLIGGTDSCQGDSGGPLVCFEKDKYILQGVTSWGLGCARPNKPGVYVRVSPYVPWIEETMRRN

“full-length recombinant PauA of S. uberis strain 95-140 expressed from pER326 in E. coli strain Pz326 (enzyme)” showed a Titer, chromogenic assay of whole cell pellet (titer (inverse of dilution factor)) in series [1] of 23.3.
In series [1], “full-length recombinant PauA of S. uberis strain 95-140 expressed from pER330 in E. coli strain Pz330 (enzyme)” showed a Titer, chromogenic assay of whole cell pellet (titer (inverse of dilution factor)) of 1.
With “purified native PauA (strain not stated where used)”, in the series with bovine plasminogen, the “enzymatic activity, chromogenic assay titer” value was “titer=3256” and the specific activity result was “the specific activity for native PauA was 5.9 chromogenic units/µg”.
As for “signal peptide-deleted recombinant PauA of S. uberis strain 95-140 expressed from pER328 in E. coli strain Pz328 (enzyme)”, the Titer, chromogenic assay of whole cell pellet (titer (inverse of dilution factor)) in series [1] amounted to 5.3.

B1: PauA from S. uberis strain c216 expressed by E. coli strain Pz318 (plasmid pER318) (protein)
chain: MKKWFLILMLLGIFGCATQPSKVAAITGYDSDYYARYIDPDENKITFAINVDGFVEGSNQEILIRGIHHVLTDQNQKIVTKAELLDAIRHQMVLLQLDYSYELVDFAPDAQLLTQDRRLLFANQNFEESVSLEDTIQEYLLKGHVILRKRVEEPITHPTETANIEYKVQFATKDGEFHPLPIFVDYGEKHIGEKLTSDEFRKIAEEKLLQLYPDYMIDQKEYTIIKHNSLGQLPRYYSYQDHFSYEIQDRQRIMAKDPKSGKELGETQSIDNVFEKYLITKKSYKP
Regarding B1, in series [2], the “zone of clearing on skim-milk plates with or without bovine plasminogen” value is reported as “their ability to express plasminogen-dependent PauA activity was confirmed by their inability to produce a zone of clearing following growth of individual colonies on plasminogen-free skim-milk plates”.

B2: PauA from S. uberis strain 95-140 expressed by E. coli strain Pz319 (plasmid pER319) (protein)
chain: B1 chain with D73N, Q115R, Q124R, L211R, Q240P, H242D
Regarding B2, the “zone of clearing on skim-milk plates with or without bovine plasminogen” value in series [2] was “their ability to express plasminogen-dependent PauA activity was confirmed by their inability to produce a zone of clearing following growth of individual colonies on plasminogen-free skim-milk plates”.

B3: GST-PauA^28-286 fusion protein (pER356) (protein)
chain: GYDSDYYARYIDPDENKITFAINVDGFVEGSNQEILIRGIHHVLTNQNQKIVTKAELLDAIRHQMVLLQLDYSYELVDFAPDAQLLTRDRRLLFANRNFEESVSLEDTIQEYLLKGHVILRKRVEEPITHPTETANIEYKVQFATKDGEFHPLPIFVDYGEKHIGEKLTSDEFRKIAEEKLLQRYPDYMIDQKEYTIIKHNSLGQLPRYYSYPDDFSYEIQDRQRIMAKDPKSGKELGETQSIDNVFEKYLITKKSYKP
With B3, in series [2], the “enzymatic activity, chromogenic assay titer” value was “titer=3448” and the specific activity entry is listed as “the specific activity of GST-PauA^28-286 was 1.4”.
